Test results as given in patent US20100166779A1 (GANYMED PHARMACEUTICALS, published 2010).
Where a chain is given by its changes, count along the chain named.

Key:
[1] = target: T1, Peptide 1 MDQWSTQDLYNNPVT (human); assay: SPOT peptide scan, peroxidase-conjugated antibody, luminescence; no exchange
T1 construct: linear 15mer of the SPOT peptide scan; has no cysteine, so the Cys-Ser exchange row is the same peptide
T1 peptide: MDQWSTQDLYNNPVT

[2] = target: T2, Peptide 6 QGLWRSCVRESSGFT (human); assay: as above
T2 construct: linear 15mer of the SPOT peptide scan, no exchange
T2 peptide: QGLWRSCVRESSGFT

[3] = target: T3, Peptide 7 RSCVRESSGFTECRG (human); assay: as above
T3 construct: linear 15mer of the SPOT peptide scan, no exchange
T3 peptide: RSCVRESSGFTECRG

[4] = target: T4, Peptide 7, Cys-Ser exchange (human); assay: SPOT peptide scan, peroxidase-conjugated antibody, luminescence; Cys-Ser exchange
T4 construct: also called peptide 7 containing serines instead of the two cysteines
T4 peptide: RSSVRESSGFTESRG

[5] = target: T5, human CLD18A1 (human, UniProt P56856 1-261); assay: flow cytometry on HEK293-CLD18A1 cells
T5 construct: on transfected HEK293 or CHO cells; also called claudin 18 splice variant 1; NP-057453

[6] = target: T6, Peptide 3 LYNNPVTAVFNYQGL (human); assay: SPOT peptide scan, peroxidase-conjugated antibody, luminescence; no exchange
T6 construct: linear 15mer of the SPOT peptide scan; has no cysteine, so the Cys-Ser exchange row is the same peptide
T6 peptide: LYNNPVTAVFNYQGL

[7] = target: T7, Peptide 5 VFNYQGLWRSCVRES (human); assay: as above
T7 construct: linear 15mer of the SPOT peptide scan, no exchange
T7 peptide: VFNYQGLWRSCVRES

[8] = target: T8, Peptide 5, Cys-Ser exchange (human); assay: SPOT peptide scan, peroxidase-conjugated antibody, luminescence; Cys-Ser exchange
T8 peptide: VFNYQGLWRSSVRES

[9] = target: T9, Peptide 6, Cys-Ser exchange (human); assay: as above
T9 peptide: QGLWRSSVRESSGFT

[10] = target: T5, human CLD18A1; assay: summary of properties
[11] = target: T10, murine CLD18A1 (mouse, UniProt P56857 1-264); assay: summary of properties
T10 construct: on transiently transfected HEK293 cells; also called mouse CLD18A1; NP-062789

[12] = target: T5, human CLD18A1; assay: summary table of murine antibodies
[13] = target: T10, murine CLD18A1; assay: summary table of murine antibodies
[14] = target: T10, murine CLD18A1; assay: flow cytometry on transfected HEK293 cells
Experimental: Binding of the identified monoclonal antibodies to murine CLD18A2 and CLD18A1 was analyzed by flow cytometry. […] Binding was assessed by flow cytometry using a BD FACSArray.

B1: ch-175D10 (antibody, V domains shown)
VH: QVQLQQPGAELVRPGASVKLSCKASGYTFTSYWINWVKQRPGQGLEWIGNIYPSDSYTNYNQKFKDKATLTVDKSSSTAYMQLSSPTSEDSAVYYCTRSWRGNSFDYWGQGTTLTVSS
VL: DIVMTQSPSSLTVTAGEKVTMSCKSSQSLLNSGNQKNYLTWYQQKPGQPPKLLIYWASTRESGVPDRFTGSGSGTDFTLTISSVQAEDLAVYYCQNDYSYPFTFGSGTKLEIKR
notes: mouse/human chimeric, human gamma-1 and kappa constant regions; peroxidase-conjugated in the peptide scan; also called chimeric 175D10
- binding result [1]: binds
- binding result [2]: binds
- binding result [3]: binds
- binding result [4]: binds

B2: ch-163E12 (antibody, V domains shown)
VH: QIQLVQSGPELKKPGETVKISCKASGYTFTNYGMNWVKQAPGKGLKWMGWINTNTGEPTYAEEFKGRFAFSLETSASTAYLQINNLKNEDTATYFCARLGFGNAMDYWGQGTSVTVSS
VL: B1 VL with F102L, S106A, I112L
notes: mouse/human chimeric, human gamma-1 and kappa constant regions; peroxidase-conjugated in the peptide scan; also called chimeric 163E12
- binding result [5]: no binding
- binding result [1]: binds
- binding result [6]: binds
- binding result [7]: binds
- binding result [2]: binds
- binding result [8]: binds
- binding result [9]: binds

B3: ch-43A11 (antibody, V domains shown)
VH: QVQLQQSGAELMKPGASVKISCKATGYTFSSYWIEWVKQRPGHGLEWIGEILPGSGSTNYNEKFKGKATFTADTSSNTAYMQLSSLTSEDSAVYYCARYDYPWFAYWGQGTLVTVSA
VL: QIVLTQSPAIMSASPGEKVTITCSASSSVSYMHWFQQKPGTSPKLWIYSTSNLASGVPARFSGSGSGTSYSLTISRMEAEDAATYYCQQRSSYPPTFGGGTKLEIKR
notes: mouse/human chimeric, human gamma-1 and kappa constant regions; also called chimeric 43A11
- binding result [5]: no binding

B4: 43A11 (antibody, IgG2a, V domains shown)
VH: B3 VH
VL: QIVLTQSPAIMSASPGEKVTITCSASSSVSYMHWFQQKPGTSPKLWIYSTSNLASGVPARFSGSGSGTSYSLTISRMEAEDAATYYCQQRSSYPPTFGGGTKLEIK
notes: mouse monoclonal IgG2a, kappa; also called 182-D1106-062; DSM ACC2742
- binding result [5]: no binding

B5: ch-166E2 (antibody, V domains shown)
VH: QVQLQQSGPELVKPGASVKMSCKASGYTFTDYVISWVKQRTGQGLEWIGEIYPGSGSTYYNEKFKGKATLTADKSSNTAYMQLSSLTSEDSAVYFCARGVLLRAMDYWGQGTSVTVSS
VL: DIVMSQSPSSLAVSAGEKVTMSCKSSQSLLNSRTRKNYLAWYQQKPGQSPKLLIYWASTRESGVPDRFTGSGSGTDFTLTISSVQAEDLAVYYCKQSYNLYTFGGGTKLEIKR
notes: mouse/human chimeric, human gamma-1 and kappa constant regions; also called chimeric 166E2
- binding result [5]: no binding

B6: 166E2 (antibody, IgG3, V domains shown)
VH: B5 VH
VL: DIVMSQSPSSLAVSAGEKVTMSCKSSQSLLNSRTRKNYLAWYQQKPGQSPKLLIYWASTRESGVPDRFTGSGSGTDFTLTISSVQAEDLAVYYCKQSYNLYTFGGGTKLEIK
notes: mouse monoclonal IgG3, kappa; also called 182-D1106-308
- binding result [10]: no binding
- binding result [11]: no binding

B7: ch-125E1 (antibody, V domains shown)
VH: QVQLQQSGAELARPGASVKLSCKASGYTFTDYYINWVKQRTGQGLEWIGEIYPGSGNTYYNEKFKGKATLTADKSSSTAYMQLSSLTSEDSAVYFCARSYGAFDYWGQGTTLTVSS
VL: DIVMTQSQKFMSTSVGDRVSITCKASQNVRTAVAWYQQKPGQSPKALIYLASNRHTGVPDRFTGSGSGTDFTLTISNVQSEDLADYFCLQHWNYPLTFGGGTKLEIKR
notes: mouse/human chimeric, human gamma-1 and kappa constant regions; also called chimeric 125E1
- binding result [5]: no binding

B8: 125E1 (antibody, IgG2a, V domains shown)
VH: B7 VH
VL: DIVMTQSQKFMSTSVGDRVSITCKASQNVRTAVAWYQQKPGQSPKALIYLASNRHTGVPDRFTGSGSGTDFTLTISNVQSEDLADYFCLQHWNYPLTFGGGTKLEIK
notes: mouse monoclonal IgG2a, kappa; also called 182-D1106-279; DSM ACC2808
- binding result [12]: no binding
- binding result [13]: no binding

B9: 163E12 (antibody, IgG3, V domains shown)
VH: B2 VH
VL: DIVMTQSPSSLTVTAGEKVTMSCKSSQSLLNSGNQKNYLTWYQQKPGQPPKLLIYWASTRESGVPDRFTGSGSGTDFTLTISSVQAEDLAVYYCQNDYSYPLTFGAGTKLELK
notes: mouse monoclonal IgG3, kappa; also called 182-D1106-294; DSM ACC2809
- binding result [5]: no binding
- binding result [14]: no binding
